This note sets out measurements from patent publication US20140274782A1, “AFFINITY REAGENTS AND METHODS FOR DETECTION, PURIFICATION, AND PROTEOMIC ANALYSIS OF METHYLATED PROTEINS” (The Board of Trustees of the Leland Stanford Junior …, priority 2013, published 2014).

For assay [1], the system named is 3×MBT domain of L3MBTL1. The assay can be described thus: Triple SILAC pull-down, 3xMBT/3xMBTD355N ratio (cytoplasmic, nuclear and chromatin fractions of 293T cells).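 As to all read-outs here: proteins quantified with MaxQuant, requiring at least two unique peptides and quantification in both label directions, normalized to the mean of proteins from a digested loading control.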 The following applies: SILAC ratio, pull-down 3xMBT vs 3xMBTD355N; for 3xMBT/D355N UNC Heavy: experiment with UNC0638 in heavy SILAC media; for 3xMBT/D355N UNC Light: experiment with UNC0638 in light SILAC media. The assay is classed as binding, human.

Assay [2] concerns the target T1, G9a and GLP (Homo sapiens, UniProt Q96KQ7+Q9H9B1).
T1 sequence (Q96KQ7 2-1210 limits assumed): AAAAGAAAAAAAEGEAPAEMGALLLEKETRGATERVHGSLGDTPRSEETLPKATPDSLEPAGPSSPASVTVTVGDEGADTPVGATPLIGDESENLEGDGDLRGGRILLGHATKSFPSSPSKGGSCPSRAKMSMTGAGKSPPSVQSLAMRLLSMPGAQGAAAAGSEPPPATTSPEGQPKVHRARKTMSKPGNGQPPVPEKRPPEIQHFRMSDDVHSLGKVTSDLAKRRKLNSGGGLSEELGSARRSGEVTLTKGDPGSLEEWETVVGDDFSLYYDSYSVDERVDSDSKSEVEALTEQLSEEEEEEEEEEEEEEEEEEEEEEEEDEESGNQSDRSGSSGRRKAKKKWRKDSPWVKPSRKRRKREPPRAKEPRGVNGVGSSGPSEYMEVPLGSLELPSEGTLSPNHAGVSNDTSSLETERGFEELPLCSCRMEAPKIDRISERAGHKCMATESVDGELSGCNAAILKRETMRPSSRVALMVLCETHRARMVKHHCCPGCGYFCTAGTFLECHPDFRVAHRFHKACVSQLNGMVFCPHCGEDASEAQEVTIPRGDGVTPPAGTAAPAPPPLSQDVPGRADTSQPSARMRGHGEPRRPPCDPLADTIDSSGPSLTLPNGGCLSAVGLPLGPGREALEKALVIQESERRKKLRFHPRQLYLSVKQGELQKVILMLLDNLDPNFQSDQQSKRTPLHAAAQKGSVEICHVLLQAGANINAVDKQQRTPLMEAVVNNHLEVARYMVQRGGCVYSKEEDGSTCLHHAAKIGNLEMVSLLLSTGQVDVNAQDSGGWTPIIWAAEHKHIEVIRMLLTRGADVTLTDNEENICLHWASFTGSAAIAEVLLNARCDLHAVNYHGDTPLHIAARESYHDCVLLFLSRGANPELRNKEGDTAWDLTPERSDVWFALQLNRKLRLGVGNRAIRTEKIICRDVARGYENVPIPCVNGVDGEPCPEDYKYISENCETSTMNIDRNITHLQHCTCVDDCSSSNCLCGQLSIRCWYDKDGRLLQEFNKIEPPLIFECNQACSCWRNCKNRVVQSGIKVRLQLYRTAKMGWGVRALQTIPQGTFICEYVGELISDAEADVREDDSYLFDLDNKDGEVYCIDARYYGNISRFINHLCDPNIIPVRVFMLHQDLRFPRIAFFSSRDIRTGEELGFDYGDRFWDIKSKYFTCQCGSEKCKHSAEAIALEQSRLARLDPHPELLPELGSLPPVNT
T1 sequence (Q9H9B1 2-1298 limits assumed): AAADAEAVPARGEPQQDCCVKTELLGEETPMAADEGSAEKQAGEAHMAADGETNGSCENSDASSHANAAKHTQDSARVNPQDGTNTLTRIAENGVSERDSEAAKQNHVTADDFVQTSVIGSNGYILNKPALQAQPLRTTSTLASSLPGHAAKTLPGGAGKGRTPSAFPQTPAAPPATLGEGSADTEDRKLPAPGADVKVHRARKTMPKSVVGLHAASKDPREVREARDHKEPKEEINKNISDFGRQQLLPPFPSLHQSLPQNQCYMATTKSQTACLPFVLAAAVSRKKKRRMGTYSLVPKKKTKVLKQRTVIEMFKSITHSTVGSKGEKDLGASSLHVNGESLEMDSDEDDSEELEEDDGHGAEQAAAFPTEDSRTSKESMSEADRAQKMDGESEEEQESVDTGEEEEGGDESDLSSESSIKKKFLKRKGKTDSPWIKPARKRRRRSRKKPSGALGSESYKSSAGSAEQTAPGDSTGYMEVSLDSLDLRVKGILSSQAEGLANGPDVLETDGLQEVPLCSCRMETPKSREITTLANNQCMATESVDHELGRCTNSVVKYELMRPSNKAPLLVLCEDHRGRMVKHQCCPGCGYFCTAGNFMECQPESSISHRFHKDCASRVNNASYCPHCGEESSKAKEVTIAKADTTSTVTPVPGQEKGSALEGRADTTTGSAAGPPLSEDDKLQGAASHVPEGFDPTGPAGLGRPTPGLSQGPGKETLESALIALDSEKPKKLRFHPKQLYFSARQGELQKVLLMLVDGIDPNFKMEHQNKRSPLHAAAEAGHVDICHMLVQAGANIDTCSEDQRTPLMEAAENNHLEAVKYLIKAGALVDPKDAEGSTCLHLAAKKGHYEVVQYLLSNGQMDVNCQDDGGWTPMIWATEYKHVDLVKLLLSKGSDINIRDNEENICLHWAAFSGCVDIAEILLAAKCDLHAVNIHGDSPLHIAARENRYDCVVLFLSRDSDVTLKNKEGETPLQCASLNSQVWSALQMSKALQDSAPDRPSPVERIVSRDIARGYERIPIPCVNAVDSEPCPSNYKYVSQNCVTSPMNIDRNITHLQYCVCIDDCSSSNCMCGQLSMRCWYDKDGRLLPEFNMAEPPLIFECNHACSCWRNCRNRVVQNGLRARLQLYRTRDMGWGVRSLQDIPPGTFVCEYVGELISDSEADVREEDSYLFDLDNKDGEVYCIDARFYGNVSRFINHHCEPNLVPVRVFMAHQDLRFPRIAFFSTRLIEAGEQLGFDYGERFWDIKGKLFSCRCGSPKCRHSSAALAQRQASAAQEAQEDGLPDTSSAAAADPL
The assay can be described thus: Triple SILAC pull-down after UNC0638 treatment of 293T cells, DMSO/UNC0638 ratio of protein captured by 3×MBT.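 As to all read-outs here: mass spectrometry (Q-Exactive) SILAC quantitation, DMSO/UNC0638 ratio computed after subtracting 3×MBTD355N mutant pull-down background, only proteins with at least twofold 3×MBT over mutant signal considered.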 It counts as cell-based. The following applies: for Relative to UNC0638 UNC Heavy / Relative to UNC0638 UNC Light: SILAC ratio DMSO/UNC0638 of protein pulled down with 3xMBT; for Relative to UNC0638 UNC Heavy: UNC0638 in heavy SILAC media; for Relative to UNC0638 UNC Light: UNC0638 in light SILAC media; for Relative to UNC0638 Average: average of UNC Light and UNC Heavy experiments. Set-up: endogenous in cells; host or cells: HEK 293T.

B1: DBR1 (protein, UniProt Q9UK59 1-544, looked up)
Lariat debranching enzyme: MRVAVAGCCHGELDKIYETLALAERRGPGPVDLLLCCGDFQAVRNEADLRCMAVPPKYRHMQTFYRYYSGEKKAPVLTLFIGGNHEASNHLQELPYGGWVAPNIYYLGLAGVVKYRGVRIGGISGIFKSHDYRKGHFECPPYNSSTIRSIYHVRNIEVYKLKQLKQPIDIFLSHDWPRSIYHYGNKKQLLKTKSFFRQEVENNTLGSPAASELLEHLKPTYWFSAHLHVKFAALMQHQAKDKGQTARATKFLALDKCLPHRDFLQILEIEHDPSAPDYLEYDIEWLTILRATDDLINVTGRLWNMPENNGLHARWDYSATEEGMKEVLEKLNHDLKVPCNFSVTAACYDPSKPQTQMQLIHRINPQTTEFCAQLGIIDINVRLQKSKEEHHVCGEYEEQDDVESNDSGEDQSEYNTDTSALSSINPDEIMLDEEEDEDSIVSAHSGMNTPSVEPSDQASEFSASFSDVRILPGSMIVSSDDTVDSTIDREGKPGGTVESGNGEDLTKVPLKRLSDEHEPEQRKKIKRRNQAIYAAVDDDDDDAA
For the molecule B1, in assay [1], the “3xMBT/D355N UNC Heavy” value is reported as 3.11 log base 2 and the “3xMBT/D355N UNC Light” value is listed as 2.56 log base 2. Further, in assay [2], the “Relative to UNC0638 UNC Heavy” value was 0.54 log base 2, the “Relative to UNC0638 UNC Light” value is 0.13 log base 2 and the “Relative to UNC0638 Average” value worked out at 0.33 log base 2.

B2: CLASP2 (protein, UniProt O75122 1-1294, looked up)
CLIP-associating protein 2: MAMGDDKSFDDEESVDGNRPSSAASAFKVPAPKTSGNPANSARKPGSAGGPKVGGASKEGGAGAVDEDDFIKAFTDVPSIQIYSSRELEETLNKIREILSDDKHDWDQRANALKKIRSLLVAGAAQYDCFFQHLRLLDGALKLSAKDLRSQVVREACITVAHLSTVLGNKFDHGAEAIVPTLFNLVPNSAKVMATSGCAAIRFIIRHTHVPRLIPLITSNCTSKSVPVRRRSFEFLDLLLQEWQTHSLERHAAVLVETIKKGIHDADAEARVEARKTYMGLRNHFPGEAETLYNSLEPSYQKSLQTYLKSSGSVASLPQSDRSSSSSQESLNRPFSSKWSTANPSTVAGRVSAGSSKASSLPGSLQRSRSDIDVNAAAGAKAHHAAGQSVRSGRLGAGALNAGSYASLEDTSDKLDGTASEDGRVRAKLSAPLAGMGNAKADSRGRSRTKMVSQSQPGSRSGSPGRVLTTTALSTVSSGVQRVLVNSASAQKRSKIPRSQGCSREASPSRLSVARSSRIPRPSVSQGCSREASRESSRDTSPVRSFQPLASRHHSRSTGALYAPEVYGASGPGYGISQSSRLSSSVSAMRVLNTGSDVEEAVADALKKPARRRYESYGMHSDDDANSDASSACSERSYSSRNGSIPTYMRQTEDVAEVLNRCASSNWSERKEGLLGLQNLLKNQRTLSRVELKRLCEIFTRMFADPHGKRVFSMFLETLVDFIQVHKDDLQDWLFVLLTQLLKKMGADLLGSVQAKVQKALDVTRESFPNDLQFNILMRFTVDQTQTPSLKVKVAILKYIETLAKQMDPGDFINSSETRLAVSRVITWTTEPKSSDVRKAAQSVLISLFELNTPEFTMLLGALPKTFQDGATKLLHNHLRNTGNGTQSSMGSPLTRPTPRSPANWSSPLTSPTNTSQNTLSPSAFDYDTENMNSEDIYSSLRGVTEAIQNFSFRSQEDMNEPLKRDSKKDDGDSMCGGPGMSDPRAGGDATDSSQTALDNKASLLHSMPTHSSPRSRDYNPYNYSDSISPFNKSALKEAMFDDDADQFPDDLSLDHSDLVAELLKELSNHNERVEERKIALYELMKLTQEESFSVWDEHFKTILLLLLETLGDKEPTIRALALKVLREILRHQPARFKNYAELTVMKTLEAHKDPHKEVVRSAEEAASVLATSISPEQCIKVLCPIIQTADYPINLAAIKMQTKVIERVSKETLNLLLPEIMPGLIQGYDNSESSVRKACVFCLVAVHAVIGDELKPHLSQLTGSKMKLLNLYIKRAQTGSGGADPTTDVSGQS
As for B2, in assay [1], the “3xMBT/D355N UNC Heavy” value stood at 2.43 log base 2 and the “3xMBT/D355N UNC Light” value is on record as 2.10 log base 2. Also, in assay [2], the “Relative to UNC0638 UNC Heavy” value is 0.45 log base 2, the “Relative to UNC0638 UNC Light” value was found to be 0.19 log base 2 and the “Relative to UNC0638 Average” value is given as 0.32 log base 2.

B3: HNRNPH3 (protein, UniProt P31942 1-346, looked up)
Heterogeneous nuclear …: MDWVMKHNGPNDASDGTVRLRGLPFGCSKEEIVQFFQGLEIVPNGITLTMDYQGRSTGEAFVQFASKEIAENALGKHKERIGHRYIEIFRSSRSEIKGFYDPPRRLLGQRPGPYDRPIGGRGGYYGAGRGSMYDRMRRGGDGYDGGYGGFDDYGGYNNYGYGNDGFDDRMRDGRGMGGHGYGGAGDASSGFHGGHFVHMRGLPFRATENDIANFFSPLNPIRVHIDIGADGRATGEADVEFVTHEDAVAAMSKDKNNMQHRYIELFLNSTPGGGSGMGGSGMGGYGRDGMDNQGGYGSVGRMGMGNNYSGGYGTPDGLGGYGRGGGGSGGYYGQGGMSGGGWRGMY
For the molecule B3, in assay [1], the “3xMBT/D355N UNC Heavy” value came to 1.94 log base 2 and the “3xMBT/D355N UNC Light” value turned out to be 2.57 log base 2. Further, in assay [2], the “Relative to UNC0638 UNC Heavy” value was determined as 0.28 log base 2, the “Relative to UNC0638 UNC Light” value stood at 0.39 log base 2 and the “Relative to UNC0638 Average” value stood at 0.34 log base 2.

B4: DUT (protein, UniProt P33316 70-252, looked up)
Deoxyuridine 5'-triphosphate …: ASTVGAAGWKGELPKAGGSPAPGPETPAISPSKRARPAEVGGMQLRFARLSEHATAPTRGSARAAGYDLYSAYDYTIPPMEKAVVKTDIQIALPSGCYGRVAPRSGLAAKHFIDVGAGVIDEDYRGNVGVVLFNFGKEKFEVKKGDRIAQLICERIFYPEIEEVQALDDTERGSGGFGSTGKN
With B4, in assay [1], the “3xMBT/D355N UNC Heavy” value was determined as 1.63 log base 2 and the “3xMBT/D355N UNC Light” value is 2.37 log base 2. Moreover, in assay [2], the “Relative to UNC0638 UNC Heavy” value was found to be 0.62 log base 2, the “Relative to UNC0638 UNC Light” value worked out at 0.04 log base 2 and the “Relative to UNC0638 Average” value was determined as 0.33 log base 2.
